The series concerns the molecule itself. As to the kind of experiment: crystal structure; apo form I, space group P2_(1)2_(1)2_(1), crystallization condition I, hanging drop at 18 °C; two molecules in the asymmetric unit; 1.80 Å.

B1: 2-C-methyl-D-erythritol-4-phosphate cytidyltransferase (IspD) from Bacillus subtilis (enzyme, Bacillus subtilis 168)
chain: MSYDVVIPAAGQGKRMKAGRNKLFIELKGDPVIIHTLRVFDSHRQCDKIILVINEQEREHFQQLLSDYPFQTSIELVAGGDERQHSVYKGLKAVKQEKIVLVHDGARPFIKHEQIDELIAEAEQTGAAILAVPVKDTIKRVQDLQVSETIERSSLWAVQTPQAFRLSLLMKAHAEAERKGFLGTDDASLVEQMEGGSVRVVEGSYTNIKLTTPDDLTSAEAIMESESGNKHV
notes: IspD of Bacillus subtilis 168 (DSM 23778); the IspD gene amplified from genomic DNA as a 699 bp product; 232 residues built in apo form I (residues numbered up to 232); 699 bp fits 232 codons and a stop codon, so probably the whole gene; Cloned BamHI/XhoI in pGEX-6P-1; GST removed by PreScission protease, so a few vector residues may be left at the N-terminus (surmised); also called BsIspD; …
Regarding B1, the stoichiometry N – broadly, the number of molecules, sites or subunits per partner or assembly – came to 2.

Source of the values: PMC5099578, “A structural and functional study on the 2-C-methyl-D-erythritol-4-phosphate cytidyltransferase (IspD) from Bacillus subtilis” (Scientific Reports, 2016).
